Laboratory results reported in publication PMC11087952, “Biochemical characterization of Escherichia coli DnaC variants that alter DnaB helicase loading onto DNA” (The Journal of Biological Chemistry, 2024).

B1: DnaC 809 (E176G) (natural protein, E. coli, UniProt P0AEF0 1-245, looked up)
chain: MKNVGDLMQRLQKMMPAHIKPAFKTGEELLAWQKEQGAIRSAALERENRAMKMQRTFNRSGIRPLHQNCSFENYRVECEGQMNALSKARQYVEEFDGNIASFIFSGKPGTGKNHLAAAICNELLLRGKSVLIITVADIMSAMKDTFRNSGTSEEQLLNDLSNVDLLVIDEIGVQTGSKYEKVIINQIVDRRSSSKRPTGMLTNSNMEEMTKLLGERVMDRMRLGNSLWVIFNWDSYRSRVTGKEY
notes: DnaC helicase loader, E. coli, with E176G; Point mutation introduced by site-directed mutagenesis; the allele was first isolated as a suppressor of priA deficiency; also called product of dnaC809
B2: DnaC 811 (I184F) (natural protein, E. coli, UniProt P0AEF0 1-245, looked up)
chain: MKNVGDLMQRLQKMMPAHIKPAFKTGEELLAWQKEQGAIRSAALERENRAMKMQRTFNRSGIRPLHQNCSFENYRVECEGQMNALSKARQYVEEFDGNIASFIFSGKPGTGKNHLAAAICNELLLRGKSVLIITVADIMSAMKDTFRNSGTSEEQLLNDLSNVDLLVIDEIGVQTESKYEKVIFNQIVDRRSSSKRPTGMLTNSNMEEMTKLLGERVMDRMRLGNSLWVIFNWDSYRSRVTGKEY
notes: DnaC helicase loader, E. coli, with I184F; Point mutation introduced by site-directed mutagenesis; also called product of dnaC811
B3: DnaC 809,820 (E176G, K178N) (natural protein, E. coli, UniProt P0AEF0 1-245, looked up)
chain: MKNVGDLMQRLQKMMPAHIKPAFKTGEELLAWQKEQGAIRSAALERENRAMKMQRTFNRSGIRPLHQNCSFENYRVECEGQMNALSKARQYVEEFDGNIASFIFSGKPGTGKNHLAAAICNELLLRGKSVLIITVADIMSAMKDTFRNSGTSEEQLLNDLSNVDLLVIDEIGVQTGSNYEKVIINQIVDRRSSSKRPTGMLTNSNMEEMTKLLGERVMDRMRLGNSLWVIFNWDSYRSRVTGKEY
notes: DnaC helicase loader, E. coli, with E176G and K178N; Point mutations introduced by site-directed mutagenesis; also called product of dnaC809,820

What was measured:
[1] = molecular target: T1, Escherichia coli DnaB replicative helicase (wild-type) (E. coli, UniProt P0ACB0 1-471); test: SEC; 10 nmol DnaB and 12 nmol DnaC (1.2:1 DnaC:DnaB) in 20 mM Tris-HCl pH 8.5, 0.2 M NaCl, 5 mM MgCl2, 1 mM BME, 1 mM ATP; analytical size exclusion column (Increase 10/300 GL); peak fractions analysed by PAGE for DnaB and DnaC; conditions: both partners purified
T1 construct: DnaB replicative DNA helicase, E. coli, wild-type; The introduction describes DnaB as a closed ring-shaped hexamer; also called DnaB helicase
T1 sequence (P0ACB0 whole entry): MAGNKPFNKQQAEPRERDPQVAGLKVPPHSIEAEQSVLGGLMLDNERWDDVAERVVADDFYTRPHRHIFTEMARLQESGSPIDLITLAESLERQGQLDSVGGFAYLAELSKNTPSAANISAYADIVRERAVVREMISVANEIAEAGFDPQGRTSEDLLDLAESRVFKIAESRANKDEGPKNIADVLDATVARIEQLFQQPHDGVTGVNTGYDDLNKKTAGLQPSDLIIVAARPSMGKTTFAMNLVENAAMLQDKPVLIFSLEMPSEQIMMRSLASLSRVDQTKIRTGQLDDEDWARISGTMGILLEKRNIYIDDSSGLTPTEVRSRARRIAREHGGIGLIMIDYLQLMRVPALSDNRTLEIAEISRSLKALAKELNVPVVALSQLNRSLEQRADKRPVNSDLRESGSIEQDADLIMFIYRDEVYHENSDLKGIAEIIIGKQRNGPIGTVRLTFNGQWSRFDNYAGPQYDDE

DnaC (wild-type) = molecular target: T2, DnaC (wild-type) (Escherichia coli, UniProt P0AEF0 1-245); test: fluorescence anisotropy; 5 mM Mg2+, 2 mM ATP; 50 mM HEPES-KOH pH 7.5, 125 mM KCl, 10% glycerol, 5 mM MgCl2, 2 mM ATP, 2 mM DTT, 0.1 mg/ml BSA, 10 nM DNA, 0-50 uM DnaC; 37 C 15 min, read at 25 C; saturation; conditions: protein: recombinant; tags: 6XHis-MBP removed by TEV; single strand
T2 sequence: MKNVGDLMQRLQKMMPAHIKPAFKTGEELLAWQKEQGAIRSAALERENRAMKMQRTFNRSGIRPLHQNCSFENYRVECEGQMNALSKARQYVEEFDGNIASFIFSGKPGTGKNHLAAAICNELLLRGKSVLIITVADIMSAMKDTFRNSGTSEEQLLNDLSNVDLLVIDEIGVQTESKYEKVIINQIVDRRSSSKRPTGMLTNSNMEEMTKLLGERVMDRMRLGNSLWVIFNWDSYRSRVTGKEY

DnaC 809 = molecular target: T3, DnaC 809 (Escherichia coli, UniProt P0AEF0 1-245, E176G); test: fluorescence anisotropy; 5 mM Mg2+, 2 mM ATP; similar to wild-type; 50 mM HEPES-KOH pH 7.5, 125 mM KCl, 10% glycerol, 5 mM MgCl2, 2 mM ATP, 2 mM DTT, 0.1 mg/ml BSA, 10 nM DNA, 0-50 uM DnaC; 37 C 15 min, read at 25 C; saturation; conditions: protein: recombinant; tags: 6XHis-MBP, TEV cleaved; periplasmic localization signal on expression construct; single strand
T3 sequence: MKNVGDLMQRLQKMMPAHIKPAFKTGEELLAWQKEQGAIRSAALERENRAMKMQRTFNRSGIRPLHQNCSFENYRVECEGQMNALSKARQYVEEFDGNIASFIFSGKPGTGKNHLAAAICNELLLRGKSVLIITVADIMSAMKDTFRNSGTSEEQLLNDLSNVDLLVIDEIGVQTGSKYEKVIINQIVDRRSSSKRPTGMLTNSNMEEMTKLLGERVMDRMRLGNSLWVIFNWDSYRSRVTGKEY

DnaC 1331 = molecular target: T4, DnaC 1331 (Escherichia coli, UniProt P0AEF0 1-245, A84T); test: as above; conditions: protein: recombinant; tags: 6XHis-MBP, TEV cleaved; periplasmic localization signal on expression construct; single strand
T4 sequence: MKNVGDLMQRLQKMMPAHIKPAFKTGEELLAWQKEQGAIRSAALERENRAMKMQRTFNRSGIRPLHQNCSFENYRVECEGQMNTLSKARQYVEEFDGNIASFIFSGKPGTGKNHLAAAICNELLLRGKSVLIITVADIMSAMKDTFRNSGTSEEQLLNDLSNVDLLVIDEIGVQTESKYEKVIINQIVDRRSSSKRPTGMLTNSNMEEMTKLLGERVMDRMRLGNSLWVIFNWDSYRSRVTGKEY

DnaC 809,820 = molecular target: T5, DnaC 809,820 (Escherichia coli, UniProt P0AEF0 1-245, E176G;K178N); test: as above; conditions: protein: recombinant; tags: 6XHis-MBP, TEV cleaved; periplasmic localization signal on expression construct; single strand
T5 sequence: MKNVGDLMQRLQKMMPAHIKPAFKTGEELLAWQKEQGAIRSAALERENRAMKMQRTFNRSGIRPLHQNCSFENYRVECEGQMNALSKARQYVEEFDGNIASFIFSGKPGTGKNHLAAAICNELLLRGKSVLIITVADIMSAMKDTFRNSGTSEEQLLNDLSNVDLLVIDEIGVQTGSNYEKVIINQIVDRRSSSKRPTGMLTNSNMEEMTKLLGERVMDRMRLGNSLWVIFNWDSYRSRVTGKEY

Row | Binder | binding result [1] | binding result (DnaC (wild-type)) | binding result (DnaC 809) | binding result (DnaC 1331) | binding result (DnaC 809,820)
1 | B1 | binds | – | – | – | –
2 | B2 | binds | – | – | – | –
3 | B3 | binds | – | – | – | –
4 | TTTTTTTTTTTTTTTTTTTT (ssDNA) [dT20] | – | binds | binds | binds | binds
